From publication PMC12416549 (2024) come the findings set out here.

Residue numbers refer to the chain shown, from its start. In names and notes the source's numbering stands.

To fix the notation:
T1: TNFR1 (Homo sapiens, UniProt P19438)
T1 chain: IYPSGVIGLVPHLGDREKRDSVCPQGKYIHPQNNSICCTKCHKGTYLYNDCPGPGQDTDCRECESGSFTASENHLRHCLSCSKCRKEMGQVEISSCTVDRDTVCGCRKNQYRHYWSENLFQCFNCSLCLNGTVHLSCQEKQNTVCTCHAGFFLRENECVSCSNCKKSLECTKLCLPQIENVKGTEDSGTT

B1: L3C (designed binder)
chain: MTCQELLREEALRRAEAEAFRYALELLAEKFPEQKEYLLDLAEEIESQIRSLSGVDVEDVRKFLDKEWAWVKELLAEHPAELAEVEAARAARLAELRAEVEAKVAA
B2: F31W (designed binder)
chain: B1 chain with C3L, F31W
B3: A88L (designed binder)
chain: B1 chain with C3L, A88L
B4: E18M (designed binder)
chain: B1 chain with C3L, E18M
B5: A11T (designed binder)
chain: B1 chain with C3L, A11T
B6: Q34G (designed binder)
chain: B1 chain with C3L, Q34G
B7: E77L (designed binder)
chain: B1 chain with C3L, E77L
B8: E95M (designed binder)
chain: B1 chain with C3L, E95M
B9: V55W (designed binder)
chain: B1 chain with C3L, V55W
B10: E10D (designed binder)
chain: B1 chain with C3L, E10D
B11: A28M (designed binder)
chain: B1 chain with C3L, A28M
B12: A102C (designed binder)
chain: B1 chain with C3L, A102C
B13: E101T (designed binder)
chain: B1 chain with C3L, E101T
B14: I45Y (designed binder)
chain: B1 chain with C3L, I45Y
B15: T2R (designed binder)
chain: B1 chain with T2R, C3L
B16: M1V (designed binder)
chain: B1 chain with M1V, C3L
B17: A102R (designed binder)
chain: B1 chain with C3L, A102R
B18: A76S (designed binder)
chain: B1 chain with C3L, A76S
B19: E46W (designed binder)
chain: B1 chain with C3L, E46W
B20: K72Y (designed binder)
chain: B1 chain with C3L, K72Y
B21: A15P (designed binder)
chain: B1 chain with C3L, A15P
B22: A91M (designed binder)
chain: B1 chain with C3L, A91M
B23: L6R (designed binder)
chain: B1 chain with C3L, L6R
B24: F31C (designed binder)
chain: B1 chain with C3L, F31C
B25: V100N (designed binder)
chain: B1 chain with C3L, V100N
B26: A90Y (designed binder)
chain: B1 chain with C3L, A90Y
B27: A80C (designed binder)
chain: B1 chain with C3L, A80C
B28: E29M (designed binder)
chain: B1 chain with C3L, E29M
B29: V57G (designed binder)
chain: B1 chain with C3L, V57G
B30: V100F (designed binder)
chain: B1 chain with C3L, V100F
B31: T2E (designed binder)
chain: B1 chain with T2E, C3L
B32: H78D (designed binder)
chain: B1 chain with C3L, H78D
B33: A19N (designed binder)
chain: B1 chain with C3L, A19N
B34: A91E (designed binder)
chain: B1 chain with C3L, A91E
B35: E101V (designed binder)
chain: B1 chain with C3L, E101V
B36: R13T (designed binder)
chain: B1 chain with C3L, R13T
B37: K72V (designed binder)
chain: B1 chain with C3L, K72V
B38: W70I (designed binder)
chain: B1 chain with C3L, W70I
B39: L96T (designed binder)
chain: B1 chain with C3L, L96T
B40: E81N (designed binder)
chain: B1 chain with C3L, E81N
B41: A17D (designed binder)
chain: B1 chain with C3L, A17D
B42: E33S (designed binder)
chain: B1 chain with C3L, E33S
B43: R50W (designed binder)
chain: B1 chain with C3L, R50W
B44: Y22W (designed binder)
chain: B1 chain with C3L, Y22W
B45: F31T (designed binder)
chain: B1 chain with C3L, F31T
B46: A83L (designed binder)
chain: B1 chain with C3L, A83L
B47: L96H (designed binder)
chain: B1 chain with C3L, L96H
B48: D56R (designed binder)
chain: B1 chain with C3L, D56R
B49: L93M (designed binder)
chain: B1 chain with C3L, L93M
B50: V57M (designed binder)
chain: B1 chain with C3L, V57M
B51: A80D (designed binder)
chain: B1 chain with C3L, A80D
B52: A76L (designed binder)
chain: B1 chain with C3L, A76L
B53: V104W (designed binder)
chain: B1 chain with C3L, V104W
B54: A83W (designed binder)
chain: B1 chain with C3L, A83W
B55: A42D (designed binder)
chain: B1 chain with C3L, A42D

In this experiment the target is T1, TNFR1. The experiment in a line: yeast display SC50.
Turning to B1, the “apparent Kd (screen)” value is 12.5 nM.

For B2, the “apparent Kd (screen)” value was 1.16 nM.

For the molecule B3, the “apparent Kd (screen)” value was found to be 0.49 nM. Next, B4: 0.49 nM; B5: 0.593 nM; B6: 0.593 nM. For the molecule B7, the “apparent Kd (screen)” value was determined as 0.446 nM.

Regarding B8, the “apparent Kd (screen)” value is 0.446 nM. Take B9: the “apparent Kd (screen)” value was found to be 1.16 nM. With B10, the “apparent Kd (screen)” value came to 0.539 nM. Next, B11: 9.41 nM; B12: 0.539 nM; B13: 1.05 nM. Next, B14: 1.86 nM; B15: 0.956 nM. As for B16, the “apparent Kd (screen)” value was found to be 0.539 nM. Consider B17, for which the “apparent Kd (screen)” value was determined as 0.446 nM. With B18, the “apparent Kd (screen)” value worked out at 0.49 nM. Regarding B19, the “apparent Kd (screen)” value is 0.368 nM. Next, B20: 0.593 nM.

In the case of B21, the “apparent Kd (screen)” value is 2.73 nM.

For the molecule B22, the “apparent Kd (screen)” value was found to be 0.869 nM.

Turning to B23, the “apparent Kd (screen)” value was found to be 12.5 nM. Next, B24: 0.653 nM; B25: 0.593 nM; B26: 0.718 nM. Next, B27: 0.49 nM; B28: 0.539 nM; B29: 1.86 nM. Take B30: the “apparent Kd (screen)” value came out at 0.49 nM. Next, B31: 2.73 nM; B32: 0.593 nM; B33: 0.446 nM. In the case of B34, the “apparent Kd (screen)” value was 0.593 nM. Next, B35: 0.539 nM; B36: 0.335 nM.

B37: the “apparent Kd (screen)” value was determined as 0.593 nM.

In the case of B38, the “apparent Kd (screen)” value came out at 13.8 nM. Take B39: the “apparent Kd (screen)” value amounted to 0.49 nM. For the molecule B40, the “apparent Kd (screen)” value is 0.539 nM.

Regarding B41, the “apparent Kd (screen)” value was 0.79 nM. As to B42, the “apparent Kd (screen)” value turned out to be 0.49 nM. Next, B43: 2.73 nM; B44: 0.49 nM.

In the case of B45, the “apparent Kd (screen)” value was determined as 0.593 nM. As to B46, the “apparent Kd (screen)” value stood at 0.446 nM. With B47, the “apparent Kd (screen)” value stood at 0.49 nM.

Consider B48, for which the “apparent Kd (screen)” value came to 2.25 nM. As to B49, the “apparent Kd (screen)” value worked out at 0.539 nM. Regarding B50, the “apparent Kd (screen)” value was 2.48 nM.

On to B51, for which the “apparent Kd (screen)” value came to 0.49 nM. Next, B52: 0.49 nM. In the case of B53, the “apparent Kd (screen)” value came out at 0.869 nM.

Regarding B54, the “apparent Kd (screen)” value was 0.49 nM. As for B55, the “apparent Kd (screen)” value was 1.86 nM.
